Experimental data from the supplement of paper PMC10567573.

B1: OAS1 (parent)
chain: LQLGEGVEFDVLPAFDALGQLTGG
B2: KCNA4 (parent)
chain: YQSGGRLKRPVNVPFDIFTEEVKF

Variants of: B1
Experiment: protein stability index of a GFP-peptide fusion (GPS, HEK-293T) (PSI 1-6); higher = more stable
Conditions: c terminus: a fixed tail appended
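Also: lentivirally expressed fusions sorted by FACS into six bins by GFP to DsRed ratio, PSI derived from sequencing read proportions per bin multiplied by bin number.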

Variant | protein stability index
LQLGEGVEFDVLPAFDANGQLTGG [L18N] | 2.17
LQLGEGVEFDVLPAFDASGQLTGG [L18S] | 2.38
LQLGEGVEFDVLPAFDAVGQLTGG [L18V] | 2
LQLGEGVEFDVLPAFDAQGQLTGG [L18Q] | 2.36
LQLGEGVEFDVLPAFDAWGQLTGG [L18W] | 3.14
LQLGEGVEFDVLPAFDAFGQLTGG [L18F] | 1.14
LQLGEGVEFDVLPAFDAAGQLTGG [L18A] | 3.35
LQLQEGVEFDVLPAFDALGQLTGG [G4Q] | 2.75
LQLREGVEFDVLPAFDALGQLTGG [G4R] | 1.78
LQLTEGVEFDVLPAFDALGQLTGG [G4T] | 2.28
LQLIEGVEFDVLPAFDALGQLTGG [G4I] | 1.88
LQLGEGVEFDVLPARDALGQLTGG [F15R] | 2.74
LQLGEGVEFDVLPAVDALGQLTGG [F15V] | 1.65
LQLGEGVEFDVLPACDALGQLTGG [F15C] | 1.86
LQLGEGVEFDVLPAWDALGQLTGG [F15W] | 1.22
LQLGEGVEFDVLPAADALGQLTGG [F15A] | 2.92
LQLGEGVEFDVLPAKDALGQLTGG [F15K] | 4.1
LQLGEGVEFDVLPAPDALGQLTGG [F15P] | 3.45
LQLGENVEFDVLPAFDALGQLTGG [G6N] | 2.25
LQLGEEVEFDVLPAFDALGQLTGG [G6E] | 2.38
LQLGEAVEFDVLPAFDALGQLTGG [G6A] | 1.53
LQLGEIVEFDVLPAFDALGQLTGG [G6I] | 1.28
LQLGERVEFDVLPAFDALGQLTGG [G6R] | 2.33

Variant | protein stability index
LQLGEPVEFDVLPAFDALGQLTGG [G6P] | 2.94
LQLGEFVEFDVLPAFDALGQLTGG [G6F] | 1.63
FQLGEGVEFDVLPAFDALGQLTGG [L1F] | 2.06
SQLGEGVEFDVLPAFDALGQLTGG [L1S] | 3.65
KQLGEGVEFDVLPAFDALGQLTGG [L1K] | 3.67
NQLGEGVEFDVLPAFDALGQLTGG [L1N] | 4.18
TQLGEGVEFDVLPAFDALGQLTGG [L1T] | 3.33
LQLGEGVEFDVLPAFDALGQLYGG [T22Y] | 1.08
LQLGEGVEFDVLPAFDALGQLAGG [T22A] | 3.87
LQLGEGVEFDVLPAFDALGQLNGG [T22N] | 1.49
LQLGEGVEFDVLPAFDALGQLQGG [T22Q] | 1.14
LQLGEGVHFDVLPAFDALGQLTGG [E8H] | 2.07
LQLGEGVNFDVLPAFDALGQLTGG [E8N] | 2.4
LQLGEGVLFDVLPAFDALGQLTGG [E8L] | 1.5
LQLGEGVSFDVLPAFDALGQLTGG [E8S] | 1.99
LQLGEGVKFDVLPAFDALGQLTGG [E8K] | 1.83
LQVGEGVEFDVLPAFDALGQLTGG [L3V] | 2.34
LQTGEGVEFDVLPAFDALGQLTGG [L3T] | 3.61
LQIGEGVEFDVLPAFDALGQLTGG [L3I] | 2.26
LQLGEGVEFDVLPAFDALGQGTGG [L21G] | 2.36
LQLGEGVEFDVLPAFDALGQDTGG [L21D] | 3.43
LQLGEGVEFDVLPAFDALGQKTGG [L21K] | 3.12
LQLGEGVEFDVLPAFDALGQFTGG [L21F] | 2.53

Variant | protein stability index
LQLGEGVEFDVLPAFDALGQQTGG [L21Q] | 3.62
LQLGEGVEFDVLPAFDALGQPTGG [L21P] | 2.9
LPLGEGVEFDVLPAFDALGQLTGG [Q2P] | 3.18
LGLGEGVEFDVLPAFDALGQLTGG [Q2G] | 1.74
LQLGEGVEFDVLPDFDALGQLTGG [A14D] | 1.67
LQLGEGVEFDVLPKFDALGQLTGG [A14K] | 1.61
LQLGEGVEFDVLPGFDALGQLTGG [A14G] | 1.88
LQLGEGVEFDVLPIFDALGQLTGG [A14I] | 1.48
LQLGEGVEFDVLPAFDHLGQLTGG [A17H] | 1.76
LQLGEGVEFDVLPAFDQLGQLTGG [A17Q] | 1.61
LQLGEGVEFDVLPAFDTLGQLTGG [A17T] | 2.6
LQLGEGVEFDVLPAFDPLGQLTGG [A17P] | 2.41
LQLGEGVEFDVLPAFDLLGQLTGG [A17L] | 1.9
LQLGEGVEFDVLPAFDALQQLTGG [G19Q] | 1.61
LQLGEGVEFDVLPAFDALPQLTGG [G19P] | 1.79
LQLGEGVEFDVLPAFDALLQLTGG [G19L] | 2.67
LQLGEGVEFDVLPAFDALFQLTGG [G19F] | 1.76
LQLGEGVEFDVLPAFDALEQLTGG [G19E] | 1.61
LQLGEGVEFDVLGAFDALGQLTGG [P13G] | 1.31
LQLGEGVEFDVLNAFDALGQLTGG [P13N] | 2.69
LQLGEGVEFDVLDAFDALGQLTGG [P13D] | 1.4
LQLGEGVEFDVPPAFDALGQLTGG [L12P] | 2.48
LQLGEGVEFDVDPAFDALGQLTGG [L12D] | 4.05

Variant | protein stability index
LQLGEGVEFDVFPAFDALGQLTGG [L12F] | 1.54
LQLGEGVEFDVKPAFDALGQLTGG [L12K] | 2.94
LQLGEGVEFDVNPAFDALGQLTGG [L12N] | 2.99
LQLGEGVEFDVSPAFDALGQLTGG [L12S] | 3.82
LQLGEGVEFDVTPAFDALGQLTGG [L12T] | 2.4
LQLGEGVEFDVHPAFDALGQLTGG [L12H] | 3.08
LQLGEGVEFDVGPAFDALGQLTGG [L12G] | 2.69
LQLGEGVEFDVWPAFDALGQLTGG [L12W] | 1.13
LQLGAGVEFDVLPAFDALGQLTGG [E5A] | 1.99
LQLGMGVEFDVLPAFDALGQLTGG [E5M] | 1.15
LQLGTGVEFDVLPAFDALGQLTGG [E5T] | 2.05
LQLGEGVEFDVLPAFSALGQLTGG [D16S] | 1.07
LQLGEGVEFDVLPAFKALGQLTGG [D16K] | 1.81
LQLGEGVEFDVLPAFTALGQLTGG [D16T] | 1.99
LQLGEGHEFDVLPAFDALGQLTGG [V7H] | 2.9
LQLGEGYEFDVLPAFDALGQLTGG [V7Y] | 1.55
LQLGEGPEFDVLPAFDALGQLTGG [V7P] | 1.67
LQLGEGDEFDVLPAFDALGQLTGG [V7D] | 2.04
LQLGEGWEFDVLPAFDALGQLTGG [V7W] | 2.81
LQLGEGCEFDVLPAFDALGQLTGG [V7C] | 1.34
LQLGEGSEFDVLPAFDALGQLTGG [V7S] | 2.11
LQLGEGKEFDVLPAFDALGQLTGG [V7K] | 2.27
LQLGEGEEFDVLPAFDALGQLTGG [V7E] | 2.5

Variants of: B2
Experiment: as above
Conditions: c terminus: a fixed tail appended

Variant | protein stability index
YQSGGRLKRPVNVPFDIFTEEVKL [F24L] | 2.05
YQSGKRLKRPVNVPFDIFTEEVKF [G5K] | 2.14
